This passage reports Ho/Con_1a and He/Con_1a results from patent publication US20150344570A1 (published 2015).

Assay [1] addresses T1, FcγRIa (human, UniProt P12314 16-292).
T1 construct: extracellular domain; also called FcgRI; FcgRIa; not shown: His tag attached to the C terminus
In words: SPR (Biacore), relative binding; control HoCon Ab GpH7-B3/GpL16-k0. A general note: SPR reads the build-up and loss of mass on a sensor chip optically.

The target of assay [2] is T1, FcγRIa. In words: SPR (Biacore), relative binding; control HeCon Ab GpH7-A5/GpH7-B3/GpL16-k0.

T1 sequence (P12314 16-292): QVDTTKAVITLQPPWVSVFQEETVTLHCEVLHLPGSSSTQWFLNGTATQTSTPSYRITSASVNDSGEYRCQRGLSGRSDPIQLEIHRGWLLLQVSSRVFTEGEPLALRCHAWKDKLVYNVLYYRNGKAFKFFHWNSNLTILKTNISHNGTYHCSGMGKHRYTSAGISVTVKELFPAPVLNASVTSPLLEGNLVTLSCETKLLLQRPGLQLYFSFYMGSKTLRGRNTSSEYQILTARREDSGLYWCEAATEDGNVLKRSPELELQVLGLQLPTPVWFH

B1: GpH7-B3 variant Y296_07I/GpL16-k0 (antibody, human IgG1, kappa)
heavy: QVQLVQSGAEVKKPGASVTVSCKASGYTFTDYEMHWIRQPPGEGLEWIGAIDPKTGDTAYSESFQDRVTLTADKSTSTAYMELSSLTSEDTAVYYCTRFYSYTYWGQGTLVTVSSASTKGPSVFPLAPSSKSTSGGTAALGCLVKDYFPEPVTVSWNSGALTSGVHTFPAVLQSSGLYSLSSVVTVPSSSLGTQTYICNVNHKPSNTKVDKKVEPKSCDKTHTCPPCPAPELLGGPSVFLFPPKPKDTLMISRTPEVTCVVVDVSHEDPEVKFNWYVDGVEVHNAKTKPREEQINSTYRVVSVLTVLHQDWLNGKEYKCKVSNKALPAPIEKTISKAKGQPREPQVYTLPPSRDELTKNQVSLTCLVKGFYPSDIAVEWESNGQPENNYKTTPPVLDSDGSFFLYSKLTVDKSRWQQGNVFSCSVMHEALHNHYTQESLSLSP
light: DIVMTQSPLSLPVTPGEPASISCQASESLVHSNRNTYLHWYLQKPGQSPQLLIYKVSNRFSGVPDRFSGSGSGTDFTLKISRVEAEDVGVYYCSQNTHVPPTFGQGTKVEIERTVAAPSVFIFPPSDEQLKSGTASVVCLLNNFYPREAKVQWKVDNALQSGNSQESVTEQDSKDSTYSLSSTLTLSKADYEKHKVYACEVTHQGLSSPVTKSFNRGEC
notes: Alteration in both H chains; also called Ho Ab Y296_07I
As for B1, in the assay with FcγRIa [1], the Ho/Con_1a was 106 % of control (=100).

B2: GpH7-A5/GpH7-B3 variant K334_01G/GpL16-k0 (antibody, human IgG1, kappa)
heavy 1: not shown
heavy 2: not shown
light: B1 light
notes: Alteration in one H chain only; also called He Ab K334_01G
Take B2: the He/Con_1a in the assay with FcγRIa [2] is 104 % of control (=100).

B3: GpH7-B3 variant Y300_16H/GpL16-k0 (antibody, human IgG1, kappa)
heavy: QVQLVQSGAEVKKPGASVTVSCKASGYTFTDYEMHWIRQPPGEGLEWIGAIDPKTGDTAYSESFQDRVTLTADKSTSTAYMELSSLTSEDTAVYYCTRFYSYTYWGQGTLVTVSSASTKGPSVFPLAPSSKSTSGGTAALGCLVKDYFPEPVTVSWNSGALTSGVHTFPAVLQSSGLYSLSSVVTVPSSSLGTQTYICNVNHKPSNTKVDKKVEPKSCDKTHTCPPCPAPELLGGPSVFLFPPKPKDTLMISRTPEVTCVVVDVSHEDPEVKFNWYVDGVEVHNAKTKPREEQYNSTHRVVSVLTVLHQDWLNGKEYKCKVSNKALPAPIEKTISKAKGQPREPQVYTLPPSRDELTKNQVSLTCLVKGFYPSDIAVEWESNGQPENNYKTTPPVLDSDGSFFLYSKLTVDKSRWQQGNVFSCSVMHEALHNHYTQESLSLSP
light: B1 light
notes: Alteration in both H chains; also called Ho Ab Y300_16H
Regarding B3, in the assay with FcγRIa [1], the Ho/Con_1a was 111 % of control (=100).

B4: GpH7-A5/GpH7-B3 variant K326_10E/GpL16-k0 (antibody, human IgG1, kappa)
heavy 1: not shown
heavy 2: not shown
light: B1 light
notes: Alteration in one H chain only; also called He Ab K326_10E
On to B4, for which the He/Con_1a with FcγRIa [2] was 104 % of control (=100).

B5: GpH7-A5/GpH7-B3 variant K326_04F/GpL16-k0 (antibody, human IgG1, kappa)
heavy 1: not shown
heavy 2: not shown
light: B1 light
notes: Alteration in one H chain only; also called He Ab K326_04F
Regarding B5, the He/Con_1a in the assay with FcγRIa [2] is 102 % of control (=100).

B6: GpH7-A5/GpH7-B3 variant K326_20W/GpL16-k0 (antibody, human IgG1, kappa)
heavy 1: not shown
heavy 2: not shown
light: B1 light
notes: Alteration in one H chain only; also called He Ab K326_20W
With B6, the He/Con_1a in the assay with FcγRIa [2] was 103 % of control (=100).

B7: GpH7-A5/GpH7-B3 variant I336_15Y/GpL16-k0 (antibody, human IgG1, kappa)
heavy 1: not shown
heavy 2: not shown
light: B1 light
notes: Alteration in one H chain only; also called He Ab I336_15Y
As to B7, the He/Con_1a in the assay with FcγRIa [2] was 103 % of control (=100).

B8: GpH7-A5/GpH7-B3 variant K334_05P/GpL16-k0 (antibody, human IgG1, kappa)
heavy 1: not shown
heavy 2: not shown
light: B1 light
notes: Alteration in one H chain only; also called He Ab K334_05P
Consider B8, for which, in the assay with FcγRIa [2], the He/Con_1a is 104 % of control (=100).

B9: GpH7-B3 variant Y300_07I/GpL16-k0 (antibody, human IgG1, kappa)
heavy: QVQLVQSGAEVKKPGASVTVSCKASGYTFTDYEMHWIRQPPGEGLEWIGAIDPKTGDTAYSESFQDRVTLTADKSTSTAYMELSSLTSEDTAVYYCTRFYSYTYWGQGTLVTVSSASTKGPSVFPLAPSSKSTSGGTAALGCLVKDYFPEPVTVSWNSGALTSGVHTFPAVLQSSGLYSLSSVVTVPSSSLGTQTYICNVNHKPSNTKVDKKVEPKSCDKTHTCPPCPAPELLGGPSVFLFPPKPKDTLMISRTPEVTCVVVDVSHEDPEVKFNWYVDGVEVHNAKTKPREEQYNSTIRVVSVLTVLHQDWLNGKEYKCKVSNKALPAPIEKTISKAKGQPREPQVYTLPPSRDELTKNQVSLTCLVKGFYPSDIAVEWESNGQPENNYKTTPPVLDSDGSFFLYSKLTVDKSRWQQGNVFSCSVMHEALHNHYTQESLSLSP
light: B1 light
notes: Alteration in both H chains; also called Ho Ab Y300_07I
For B9, the Ho/Con_1a in the assay with FcγRIa [1] was 109 % of control (=100).

B10: GpH7-A5/GpH7-B3 variant K326_03V/GpL16-k0 (antibody, human IgG1, kappa)
heavy 1: not shown
heavy 2: not shown
light: B1 light
notes: Alteration in one H chain only; also called He Ab K326_03V
Regarding B10, the He/Con_1a with FcγRIa [2] was 102 % of control (=100).

B11: GpH7-A5/GpH7-B3 variant K334_07I/GpL16-k0 (antibody, human IgG1, kappa)
heavy 1: not shown
heavy 2: not shown
light: B1 light
notes: Alteration in one H chain only; also called He Ab K334_07I
On to B11, for which, in the assay with FcγRIa [2], the He/Con_1a was 104 % of control (=100).

B12: GpH7-A5/GpH7-B3 variant K326_06M/GpL16-k0 (antibody, human IgG1, kappa)
heavy 1: not shown
heavy 2: not shown
light: B1 light
notes: Alteration in one H chain only; also called He Ab K326_06M
With B12, in the assay with FcγRIa [2], the He/Con_1a is 102 % of control (=100).

B13: GpH7-A5/GpH7-B3 variant K326_19Q/GpL16-k0 (antibody, human IgG1, kappa)
heavy 1: not shown
heavy 2: not shown
light: B1 light
notes: Alteration in one H chain only; also called He Ab K326_19Q
As to B13, the He/Con_1a with FcγRIa [2] was 102 % of control (=100).

B14: GpH7-A5/GpH7-B3 variant K326_09D/GpL16-k0 (antibody, human IgG1, kappa)
heavy 1: not shown
heavy 2: not shown
light: B1 light
notes: Alteration in one H chain only; also called He Ab K326_09D
As for B14, in the assay with FcγRIa [2], the He/Con_1a is 103 % of control (=100).

B15: GpH7-A5/GpH7-B3 variant K334_03V/GpL16-k0 (antibody, human IgG1, kappa)
heavy 1: not shown
heavy 2: not shown
light: B1 light
notes: Alteration in one H chain only; also called He Ab K334_03V
As for B15, in the assay with FcγRIa [2], the He/Con_1a is 105 % of control (=100).

B16: GpH7-A5/GpH7-B3 variant K326_08L/GpL16-k0 (antibody, human IgG1, kappa)
heavy 1: not shown
heavy 2: not shown
light: B1 light
notes: Alteration in one H chain only; also called He Ab K326_08L
For B16, the He/Con_1a with FcγRIa [2] was 100 % of control (=100).

B17: GpH7-A5/GpH7-B3 variant K326_07I/GpL16-k0 (antibody, human IgG1, kappa)
heavy 1: not shown
heavy 2: not shown
light: B1 light
notes: Alteration in one H chain only; also called He Ab K326_07I
Turning to B17, in the assay with FcγRIa [2], the He/Con_1a is 101 % of control (=100).

B18: GpH7-B3 variant Y296_08L/GpL16-k0 (antibody, human IgG1, kappa)
heavy: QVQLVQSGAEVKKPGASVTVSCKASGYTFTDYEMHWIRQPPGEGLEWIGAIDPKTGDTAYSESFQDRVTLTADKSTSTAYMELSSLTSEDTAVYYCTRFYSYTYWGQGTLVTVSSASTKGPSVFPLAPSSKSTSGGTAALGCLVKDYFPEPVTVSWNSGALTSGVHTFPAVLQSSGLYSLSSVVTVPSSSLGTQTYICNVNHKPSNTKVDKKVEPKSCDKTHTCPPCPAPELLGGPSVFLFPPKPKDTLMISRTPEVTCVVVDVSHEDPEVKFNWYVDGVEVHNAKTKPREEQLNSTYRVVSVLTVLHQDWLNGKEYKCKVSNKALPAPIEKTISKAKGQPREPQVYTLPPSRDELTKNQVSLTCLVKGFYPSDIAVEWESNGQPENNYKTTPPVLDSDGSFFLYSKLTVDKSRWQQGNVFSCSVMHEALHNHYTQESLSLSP
light: B1 light
notes: Alteration in both H chains; also called Ho Ab Y296_08L
For the molecule B18, the Ho/Con_1a with FcγRIa [1] was 105 % of control (=100).

B19: GpH7-A5/GpH7-B3 variant I336_16H/GpL16-k0 (antibody, human IgG1, kappa)
heavy 1: not shown
heavy 2: not shown
light: B1 light
notes: Alteration in one H chain only; also called He Ab I336_16H
As to B19, the He/Con_1a in the assay with FcγRIa [2] is 101 % of control (=100).

B20: GpH7-A5/GpH7-B3 variant K334_04F/GpL16-k0 (antibody, human IgG1, kappa)
heavy 1: not shown
heavy 2: not shown
light: B1 light
notes: Alteration in one H chain only; also called He Ab K334_04F
Turning to B20, the He/Con_1a with FcγRIa [2] was 105 % of control (=100).

B21: GpH7-A5/GpH7-B3 variant K334_02A/GpL16-k0 (antibody, human IgG1, kappa)
heavy 1: not shown
heavy 2: not shown
light: B1 light
notes: Alteration in one H chain only; also called He Ab K334_02A
B21: the He/Con_1a with FcγRIa [2] was 106 % of control (=100).
